Experiments:
Assay in all cases: cell-based or functional assay
Aurora-A(h) (human) = biological target: T1, Aurora-A(h) (human) (UniProt O14965)
T1 sequence (looked up): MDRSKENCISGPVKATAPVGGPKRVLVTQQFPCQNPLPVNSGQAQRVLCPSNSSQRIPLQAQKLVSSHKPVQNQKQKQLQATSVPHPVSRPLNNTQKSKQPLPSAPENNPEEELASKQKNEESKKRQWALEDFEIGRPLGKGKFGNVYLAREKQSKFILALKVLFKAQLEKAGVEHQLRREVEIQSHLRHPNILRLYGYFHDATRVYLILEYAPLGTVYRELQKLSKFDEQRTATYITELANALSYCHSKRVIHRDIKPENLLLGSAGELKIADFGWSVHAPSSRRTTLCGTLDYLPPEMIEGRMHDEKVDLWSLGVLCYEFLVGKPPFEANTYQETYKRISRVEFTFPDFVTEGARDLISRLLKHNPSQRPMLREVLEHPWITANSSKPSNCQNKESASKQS

CHK2(I157T)(h) (human) = CHK2(I157T)(h) (human) (UniProt O96017)
IRAK1(h) (human) = IRAK1(h) (human) (UniProt P51617)
PKCβI(h) (human) = PKCβI(h) (human) (UniProt P05771)
MSK2(h) (human) = MSK2(h) (human) (UniProt O75676)
ULK2(h) (human) = biological target: T2, ULK2(h) (human) (UniProt Q8IYT8)
T2 sequence (looked up): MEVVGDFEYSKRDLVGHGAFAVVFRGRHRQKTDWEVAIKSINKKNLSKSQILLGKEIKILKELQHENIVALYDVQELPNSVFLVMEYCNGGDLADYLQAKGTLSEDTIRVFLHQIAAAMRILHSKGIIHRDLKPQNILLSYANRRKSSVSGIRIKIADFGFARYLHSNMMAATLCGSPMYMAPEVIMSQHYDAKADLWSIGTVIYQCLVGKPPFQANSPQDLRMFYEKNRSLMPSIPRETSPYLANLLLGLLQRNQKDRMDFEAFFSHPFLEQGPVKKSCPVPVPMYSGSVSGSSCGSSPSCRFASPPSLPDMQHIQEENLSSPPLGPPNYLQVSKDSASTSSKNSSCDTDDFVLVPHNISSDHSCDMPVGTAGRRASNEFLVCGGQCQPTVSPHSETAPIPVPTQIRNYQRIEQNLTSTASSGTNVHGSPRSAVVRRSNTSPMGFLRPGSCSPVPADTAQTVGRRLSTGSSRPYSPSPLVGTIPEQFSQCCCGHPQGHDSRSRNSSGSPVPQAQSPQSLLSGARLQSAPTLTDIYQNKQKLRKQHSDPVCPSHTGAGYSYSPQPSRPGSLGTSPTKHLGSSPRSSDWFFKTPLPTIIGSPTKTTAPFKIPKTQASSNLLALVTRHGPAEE

p70S6K(h) (human) = p70S6K(h) (human) (UniProt P23443)
CaMKIδ(h) (human) = CaMKIδ(h) (human) (UniProt Q8IU85)
CDK2/cyclinE(h) (human) = CDK2/cyclinE(h) (human) (UniProt P24941)
Arg(h) (human) = Arg(h) (human) (UniProt P42684)
NEK11(h) (human) = biological target: T3, NEK11(h) (human) (UniProt Q8NG66)
T3 sequence (looked up): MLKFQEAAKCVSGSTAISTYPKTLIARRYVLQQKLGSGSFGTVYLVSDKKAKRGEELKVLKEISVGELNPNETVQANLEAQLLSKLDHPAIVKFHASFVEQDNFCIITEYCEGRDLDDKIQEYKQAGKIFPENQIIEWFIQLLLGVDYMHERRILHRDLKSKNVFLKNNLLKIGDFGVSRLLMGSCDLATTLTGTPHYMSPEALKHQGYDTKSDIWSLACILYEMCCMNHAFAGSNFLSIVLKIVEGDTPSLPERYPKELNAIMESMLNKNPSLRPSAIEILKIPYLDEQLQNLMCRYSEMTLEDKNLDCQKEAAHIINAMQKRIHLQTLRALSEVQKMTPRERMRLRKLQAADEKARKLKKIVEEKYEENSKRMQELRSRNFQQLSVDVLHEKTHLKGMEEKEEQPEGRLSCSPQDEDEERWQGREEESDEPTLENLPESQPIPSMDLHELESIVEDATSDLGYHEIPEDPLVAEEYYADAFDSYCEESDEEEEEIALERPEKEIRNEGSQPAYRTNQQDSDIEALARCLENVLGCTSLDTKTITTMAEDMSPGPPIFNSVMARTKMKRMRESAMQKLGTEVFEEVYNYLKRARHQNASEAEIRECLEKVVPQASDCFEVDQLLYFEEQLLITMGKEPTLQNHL

PKGη(h) (human) = biological target: PKGη(h) (human)
ROCK-I(h) (human) = ROCK-I(h) (human) (UniProt Q13464)
PKGδ(h) (human) = biological target: PKGδ(h) (human)
BTK(h) (human) = BTK(h) (human) (UniProt Q06187)
CaMKIIβ(h) (human) = CaMKIIβ(h) (human) (UniProt Q13554)
SAPK2a(h) (human) = SAPK2a(h) (human) (UniProt Q16539)
PDGFRα(V561D)(h) (human) = PDGFRα(V561D)(h) (human) (UniProt P16234)
FGFR2(h) (human) = FGFR2(h) (human) (UniProt P21802)
Flt4(h) (human) = Flt4(h) (human) (UniProt P35916)
EphA8(h) (human) = biological target: T4, EphA8(h) (human) (UniProt P29322)
T4 sequence (looked up): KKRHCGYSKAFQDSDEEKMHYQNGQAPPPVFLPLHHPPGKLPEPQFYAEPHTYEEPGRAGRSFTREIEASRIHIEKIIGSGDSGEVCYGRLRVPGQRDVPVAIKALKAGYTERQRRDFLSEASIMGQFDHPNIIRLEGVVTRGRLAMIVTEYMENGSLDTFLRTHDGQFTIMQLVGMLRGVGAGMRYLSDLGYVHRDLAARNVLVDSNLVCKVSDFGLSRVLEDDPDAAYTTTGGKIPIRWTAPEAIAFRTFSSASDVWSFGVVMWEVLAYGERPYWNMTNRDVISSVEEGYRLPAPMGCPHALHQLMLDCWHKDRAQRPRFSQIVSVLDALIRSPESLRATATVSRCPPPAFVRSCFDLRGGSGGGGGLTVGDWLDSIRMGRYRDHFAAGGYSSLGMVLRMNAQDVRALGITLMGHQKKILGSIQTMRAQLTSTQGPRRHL

Chain of BTK(h) (human) (Q06187 whole entry): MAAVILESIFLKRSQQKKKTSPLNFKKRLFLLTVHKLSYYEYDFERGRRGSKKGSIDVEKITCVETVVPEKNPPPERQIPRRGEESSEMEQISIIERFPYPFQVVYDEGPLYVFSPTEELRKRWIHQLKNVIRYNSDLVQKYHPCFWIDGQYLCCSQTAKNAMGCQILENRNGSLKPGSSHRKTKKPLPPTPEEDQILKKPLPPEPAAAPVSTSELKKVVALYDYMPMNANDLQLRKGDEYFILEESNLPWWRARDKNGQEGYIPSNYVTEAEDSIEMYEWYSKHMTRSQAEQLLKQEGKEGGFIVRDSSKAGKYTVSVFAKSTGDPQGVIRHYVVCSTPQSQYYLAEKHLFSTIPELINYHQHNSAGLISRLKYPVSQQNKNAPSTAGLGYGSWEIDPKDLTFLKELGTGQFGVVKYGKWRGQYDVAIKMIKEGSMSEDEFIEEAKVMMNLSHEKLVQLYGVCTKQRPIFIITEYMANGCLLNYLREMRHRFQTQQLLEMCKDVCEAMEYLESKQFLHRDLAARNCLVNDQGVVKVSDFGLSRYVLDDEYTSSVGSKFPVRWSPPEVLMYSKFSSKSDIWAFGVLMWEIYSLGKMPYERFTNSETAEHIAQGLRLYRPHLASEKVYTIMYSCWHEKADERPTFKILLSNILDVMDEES
Chain of Flt4(h) (human) (P35916 800-1363 limits assumed): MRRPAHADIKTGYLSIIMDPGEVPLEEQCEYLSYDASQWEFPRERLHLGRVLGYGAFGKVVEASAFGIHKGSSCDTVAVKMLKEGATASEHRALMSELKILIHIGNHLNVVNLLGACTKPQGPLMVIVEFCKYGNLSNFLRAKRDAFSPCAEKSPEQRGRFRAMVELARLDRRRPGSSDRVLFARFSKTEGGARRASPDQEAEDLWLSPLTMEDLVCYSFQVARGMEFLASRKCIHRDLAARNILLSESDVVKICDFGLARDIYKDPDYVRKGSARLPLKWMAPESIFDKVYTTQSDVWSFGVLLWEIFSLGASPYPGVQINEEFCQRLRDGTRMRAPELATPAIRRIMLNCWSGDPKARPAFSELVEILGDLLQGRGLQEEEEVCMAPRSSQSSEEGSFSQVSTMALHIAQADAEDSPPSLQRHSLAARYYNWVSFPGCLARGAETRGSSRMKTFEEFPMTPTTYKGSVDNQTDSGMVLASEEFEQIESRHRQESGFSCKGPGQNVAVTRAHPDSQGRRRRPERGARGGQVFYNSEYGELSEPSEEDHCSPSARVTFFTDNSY
Chain of CaMKIIβ(h) (human) (Q13554 whole entry): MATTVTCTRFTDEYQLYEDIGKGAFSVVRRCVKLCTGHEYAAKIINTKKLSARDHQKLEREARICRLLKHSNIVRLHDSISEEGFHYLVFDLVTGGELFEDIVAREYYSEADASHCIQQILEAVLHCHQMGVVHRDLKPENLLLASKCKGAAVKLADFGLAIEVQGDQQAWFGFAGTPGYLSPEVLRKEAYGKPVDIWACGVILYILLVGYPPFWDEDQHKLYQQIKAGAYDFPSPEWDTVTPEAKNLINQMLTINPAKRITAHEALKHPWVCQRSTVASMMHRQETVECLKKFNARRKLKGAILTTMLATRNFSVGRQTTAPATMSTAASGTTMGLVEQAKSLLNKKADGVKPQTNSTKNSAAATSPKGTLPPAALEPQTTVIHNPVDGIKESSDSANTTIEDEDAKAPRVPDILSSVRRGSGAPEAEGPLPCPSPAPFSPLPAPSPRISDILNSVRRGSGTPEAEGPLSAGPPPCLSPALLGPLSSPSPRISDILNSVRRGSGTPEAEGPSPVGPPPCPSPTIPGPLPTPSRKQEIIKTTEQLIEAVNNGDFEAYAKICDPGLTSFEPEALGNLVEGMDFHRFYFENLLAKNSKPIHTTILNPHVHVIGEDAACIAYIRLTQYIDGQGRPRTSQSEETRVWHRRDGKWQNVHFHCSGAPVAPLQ
Chain of ROCK-I(h) (human) (Q13464 17-535 limits assumed): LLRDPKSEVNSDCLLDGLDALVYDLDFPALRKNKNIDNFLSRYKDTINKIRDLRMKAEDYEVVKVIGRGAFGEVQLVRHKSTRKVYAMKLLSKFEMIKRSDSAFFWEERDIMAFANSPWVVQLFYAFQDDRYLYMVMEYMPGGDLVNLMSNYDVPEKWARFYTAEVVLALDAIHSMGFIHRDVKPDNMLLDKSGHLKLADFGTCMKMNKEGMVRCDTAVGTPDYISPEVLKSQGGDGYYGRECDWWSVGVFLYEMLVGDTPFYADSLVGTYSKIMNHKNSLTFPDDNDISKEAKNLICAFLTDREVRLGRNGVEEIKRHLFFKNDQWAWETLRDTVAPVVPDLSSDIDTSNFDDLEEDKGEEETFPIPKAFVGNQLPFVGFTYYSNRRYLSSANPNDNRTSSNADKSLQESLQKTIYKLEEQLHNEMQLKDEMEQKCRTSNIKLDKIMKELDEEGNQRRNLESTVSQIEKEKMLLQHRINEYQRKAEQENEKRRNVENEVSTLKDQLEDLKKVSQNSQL
Chain of CHK2(I157T)(h) (human) (O96017 5-543 I157T limits assumed): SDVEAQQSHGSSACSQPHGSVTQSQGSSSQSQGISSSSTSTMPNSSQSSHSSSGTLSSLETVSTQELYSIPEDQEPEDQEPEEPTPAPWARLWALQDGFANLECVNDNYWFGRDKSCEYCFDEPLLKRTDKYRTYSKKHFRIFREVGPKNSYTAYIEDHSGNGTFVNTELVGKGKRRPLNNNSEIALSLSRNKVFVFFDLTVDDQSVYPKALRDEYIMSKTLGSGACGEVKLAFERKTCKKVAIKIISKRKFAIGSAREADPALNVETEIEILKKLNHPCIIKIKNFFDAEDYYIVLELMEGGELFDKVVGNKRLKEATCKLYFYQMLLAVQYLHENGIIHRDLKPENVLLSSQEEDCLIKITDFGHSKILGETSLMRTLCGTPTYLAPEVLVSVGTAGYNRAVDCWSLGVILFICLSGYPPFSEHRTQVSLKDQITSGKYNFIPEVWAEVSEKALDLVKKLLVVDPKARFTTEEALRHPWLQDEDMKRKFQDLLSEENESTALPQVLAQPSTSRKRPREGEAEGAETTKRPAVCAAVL
Chain of CaMKIδ(h) (human) (Q8IU85 whole entry, stated change not applied): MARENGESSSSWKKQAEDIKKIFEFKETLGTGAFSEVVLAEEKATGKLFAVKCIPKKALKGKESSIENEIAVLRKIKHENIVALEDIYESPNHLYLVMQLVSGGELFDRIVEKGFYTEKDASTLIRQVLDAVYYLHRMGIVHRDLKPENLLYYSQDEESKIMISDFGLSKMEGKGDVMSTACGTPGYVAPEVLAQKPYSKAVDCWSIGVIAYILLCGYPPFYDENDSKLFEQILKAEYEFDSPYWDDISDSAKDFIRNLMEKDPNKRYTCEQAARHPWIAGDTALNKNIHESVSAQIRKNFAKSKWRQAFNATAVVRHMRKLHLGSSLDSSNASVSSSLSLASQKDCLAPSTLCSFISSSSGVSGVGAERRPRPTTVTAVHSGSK
Chain of IRAK1(h) (human) (P51617 194-712 limits assumed): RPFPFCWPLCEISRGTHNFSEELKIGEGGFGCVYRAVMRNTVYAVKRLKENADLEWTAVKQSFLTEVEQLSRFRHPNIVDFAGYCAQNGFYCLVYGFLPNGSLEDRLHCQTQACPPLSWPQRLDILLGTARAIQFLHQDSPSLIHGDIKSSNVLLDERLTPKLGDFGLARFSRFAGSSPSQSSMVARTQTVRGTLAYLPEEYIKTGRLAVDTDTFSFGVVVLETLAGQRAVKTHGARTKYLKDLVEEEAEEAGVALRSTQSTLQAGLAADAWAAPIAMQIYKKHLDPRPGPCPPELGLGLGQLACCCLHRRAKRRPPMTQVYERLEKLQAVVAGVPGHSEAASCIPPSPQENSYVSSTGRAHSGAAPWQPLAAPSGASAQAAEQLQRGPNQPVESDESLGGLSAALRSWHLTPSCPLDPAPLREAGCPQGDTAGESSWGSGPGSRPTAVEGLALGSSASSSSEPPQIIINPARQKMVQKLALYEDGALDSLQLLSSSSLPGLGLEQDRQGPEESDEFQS
Chain of Arg(h) (human) (P42684 38-1182 limits assumed): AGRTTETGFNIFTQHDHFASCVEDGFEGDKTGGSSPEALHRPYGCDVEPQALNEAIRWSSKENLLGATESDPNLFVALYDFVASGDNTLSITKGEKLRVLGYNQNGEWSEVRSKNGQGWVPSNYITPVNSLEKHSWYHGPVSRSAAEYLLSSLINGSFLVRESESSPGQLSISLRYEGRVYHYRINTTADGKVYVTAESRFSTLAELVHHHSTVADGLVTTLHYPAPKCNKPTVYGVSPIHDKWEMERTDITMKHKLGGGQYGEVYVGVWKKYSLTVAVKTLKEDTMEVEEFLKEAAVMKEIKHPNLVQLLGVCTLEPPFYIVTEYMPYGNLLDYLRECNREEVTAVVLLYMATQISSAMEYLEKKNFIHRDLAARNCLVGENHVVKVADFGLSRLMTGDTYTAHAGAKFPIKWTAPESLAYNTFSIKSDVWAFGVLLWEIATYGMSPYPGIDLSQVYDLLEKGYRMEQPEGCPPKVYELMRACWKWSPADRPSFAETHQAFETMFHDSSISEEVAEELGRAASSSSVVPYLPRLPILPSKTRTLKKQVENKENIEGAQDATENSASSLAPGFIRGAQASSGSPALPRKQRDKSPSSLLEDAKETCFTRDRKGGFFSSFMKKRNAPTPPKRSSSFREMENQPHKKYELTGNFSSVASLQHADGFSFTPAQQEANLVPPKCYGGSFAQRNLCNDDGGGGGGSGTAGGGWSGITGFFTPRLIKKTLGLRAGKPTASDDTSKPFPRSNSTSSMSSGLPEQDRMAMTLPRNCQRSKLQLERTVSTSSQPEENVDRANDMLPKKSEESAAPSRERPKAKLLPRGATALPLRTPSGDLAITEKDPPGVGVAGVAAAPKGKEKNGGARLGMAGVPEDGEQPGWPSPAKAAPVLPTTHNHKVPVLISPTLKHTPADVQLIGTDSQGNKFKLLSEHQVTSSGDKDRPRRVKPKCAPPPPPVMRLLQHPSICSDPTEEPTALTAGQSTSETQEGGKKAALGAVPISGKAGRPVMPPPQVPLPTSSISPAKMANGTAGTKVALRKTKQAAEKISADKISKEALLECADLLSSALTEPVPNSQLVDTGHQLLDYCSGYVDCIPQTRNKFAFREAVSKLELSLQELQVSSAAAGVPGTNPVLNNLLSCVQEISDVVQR

MMI-0500 (peptide)
% activity, 100 µM (Aurora-A(h) (human)): 110%
% activity, 100 µM (CHK2(I157T)(h) (human)): 3%
% activity, 100 µM (IRAK1(h) (human)): 5%
% activity, 100 µM (PKCβI(h) (human)): 1%
% activity, 100 µM (MSK2(h) (human)): 14%
% activity, 100 µM (ULK2(h) (human)): 124%
% activity, 100 µM (p70S6K(h) (human)): 3%
% activity, 100 µM (CaMKIδ(h) (human)): 0%
% activity, 100 µM (CDK2/cyclinE(h) (human)): 19%
% activity, 100 µM (Arg(h) (human)): 22%
% activity, 100 µM (NEK11(h) (human)): 2%
% activity, 100 µM (PKGη(h) (human)): 45%
% activity, 100 µM (ROCK-I(h) (human)): 17%
% activity, 100 µM (PKGδ(h) (human)): 61%
% activity, 100 µM (BTK(h) (human)): 18%
% activity, 100 µM (CaMKIIβ(h) (human)): 3%
% activity, 100 µM (SAPK2a(h) (human)): 52%
% activity, 100 µM (PDGFRα(V561D)(h) (human)): 146%
% activity, 100 µM (FGFR2(h) (human)): 12%
% activity, 100 µM (Flt4(h) (human)): 73%
% activity, 100 µM (EphA8(h) (human)): 337%

— patent US20140072613A1, “Compositions and Methods for Treating Cutaneous Scarring” (priority 2012, published 2014)
